Ends that are not written are not given here.
Molecular target: T1, antibody G1 Fab fragment
T1 construct: Fab expressed in E. coli; purified on Ni-NTA, tag not described
Assay: Biacore competition: 10 µM peptide with 50 nM G1 Fab over human α-CGRP chip
Excerpt: Y axis represents percentage of binding blocked by the presence of the competing peptide compared with the binding in the absence of the competing peptide.
All these peptides are amidated at the C-terminus.

T1 sequence (VH, as listed by the source, chain 1 of 2): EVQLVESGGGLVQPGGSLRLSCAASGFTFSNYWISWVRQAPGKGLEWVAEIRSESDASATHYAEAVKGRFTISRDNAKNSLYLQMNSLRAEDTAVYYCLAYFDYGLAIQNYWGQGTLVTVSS
T1 sequence (VL, as listed by the source, chain 2 of 2): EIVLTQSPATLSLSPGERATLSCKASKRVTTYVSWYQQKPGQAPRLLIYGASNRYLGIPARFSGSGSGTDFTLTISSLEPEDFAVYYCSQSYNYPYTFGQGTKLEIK

percentage of binding blocked [%] | Binder
100 | SCNTATCVTHRLAGLLSRSGGVVKDNFVPTNVGSKAF-NH2 (cysteine pairing not given here, also called rat β (1-37)) [rat β-CGRP (1-37)]
100 | ACNTATCVTHRLAGLLSRSGGMVKSNFVPTNVGSKAF-NH2 (cysteine pairing not given here, also called human β (1-37); 1-37 of β-CGRP (WT)) [human β-CGRP (1-37)]

The remaining lines, values behind:

Binder | percentage of binding blocked [%]
VTHRLAGLLSRSGGVVKNNFVPTNVGSKAF-NH2 [human α-CGRP 8-37] | 100
ACDTATCVTHRLAGLLSRSGGVVKNNFVPTNVGSKA-OH (ends and bridges not checked, not C-terminally amidated; also called 1-36 (not amidated at the C-terminus)) [human α-CGRP 1-36-COOH] | ~40
ACDTATCVTHRLAGLLSRSGGVVKNNFVPTNVGSKAF-NH2 (cysteine pairing not given here, also called full length human α-CGRP) [human α-CGRP 1-37 (WT)] | 100
NFVPTNVGSKAF-NH2 [human α-CGRP 26-37] | 100
